Data on six molecules can be found in US20230012273A1 (Boehringer Ingelheim, published 2023).

Assay [1] deals with T1, full-length human SIRPαV2 (CAA71403.1) on cells (human, UniProt P78324 31-504).
T1 construct: one molecule for CHO-K1 and Expi-CHO transfectants (CAA71403.1) and for endogenous V2 on THP-1 cells and on CD14+ monocytes of V2/V2 donors; also called CHO-hSIRPαV2; αV2 WT
The assay is described as follows: flow cytometry, CD14+ monocytes V2V2. Here is the method: (§1) Antibody binding to primary human cells expressing SIRPα is evaluated by flow cytometry. Human peripheral blood mononuclear cells (PBMCs) from donors genotyped as homozygous for the SIRPα V1 allele, V2 allele, or heterozygous for both alleles are blocked with donkey IgG and incubated on ice with increasing concentrations of antibody for 60 minutes, washed and stained with AF647-conjugated donkey F(ab′)₂ anti-human IgG secondary reagent. […] Cells are washed, fixed, and analyzed by flow cytometry. Median fluorescent intensity of the CD14+ population was determined and used as a measure of antibody binding.
Background: In flow cytometry, cells or beads pass a laser one at a time.

The target in assay [2] is T1, full-length human SIRPαV2 (CAA71403.1) …. The assay is described as follows: flow cytometry, THP-1 cells (endogenous V2). As to the method: Antibody binding to human monocytic cell lines homozygous for the V1-allele (U-937) or the V2-allele (THP-1) of SIRPα is assessed. U-937 or THP-1 cells are blocked with donkey IgG and incubated on ice with increasing concentrations of antibodies for 60 minutes, washed and stained with AF647-conjugated donkey F(ab′)₂ anti-human IgG secondary reagent. Cells are washed, fixed, and analyzed by flow cytometry. Median fluorescent intensity is determined and used as a measure of antibody binding.

Assay [3] deals with ED-tagged human SIRPα V1 receptor on Jurkat signaling reporter cells (human, UniProt P78324 31-504). As to the kind of experiment: cell-based or functional assay.
Assay [4] deals with T1, full-length human SIRPαV2 (CAA71403.1) …. The assay is described as follows: flow cytometry, Expi-CHO cells. Here is the method: (§2) Expi-CHO parental cells are transduced with lentiviruses containing either full-length wild-type human SIRPαV2 allele (CAA71403.1) or full-length human SIRPαV2 with amino acid point mutations (Table 58) and sorted to achieve matching expression levels. These cells are blocked with donkey IgG and incubated on ice with increasing concentrations of antibodies for 60 minutes, washed and stained with AF647-conjugated donkey F(ab′)₂ anti-human IgG antibodies. Stained cells are washed, fixed, and analyzed by flow cytometry. Median fluorescent intensity is determined and used as a measure of antibody binding.

Assay [5] concerns the target T2, full-length human SIRPαV2 E→N on Expi-CHO cells (human, UniProt P78324 31-504).
T2 construct: the entry already carries the change (TKRE to TKRN)
As to the kind of experiment: flow cytometry, Expi-CHO cells. As to the method:
as §2

The target of assay [6] is T3, full-length human SIRPαV2 D→E on Expi-CHO cells (human, UniProt P78324 31-504).
T3 construct: the entry already carries the change (SPDT to SPET)
As to the kind of experiment: flow cytometry, Expi-CHO cells. Here is the method:
as §2

For assay [7], the target named is T4, full-length human SIRPαV1 D→E on Expi-CHO cells (human, UniProt P78324 31-504).
T4 construct: the entry already carries the change (PDDV to PEDV)
The assay is described as follows: flow cytometry, Expi-CHO cells. Here is the method:
as §2, with “SIRPαV1” for “SIRPαV2”, “(NP_542970.1)” for “(CAA71403.1)”, “56)” for “58)”

Assay [8] concerns the target T5, full-length human SIRPαV1 (NP_542970.1) on cells (human, UniProt P78324 31-504).
T5 construct: one molecule for CHO-K1 and Expi-CHO transfectants (NP_542970.1) and for endogenous V1 on U-937 cells and on CD14+ monocytes of V1/V1 donors; also called CHO-hSIRPαV1; αV1 WT
The assay is described as follows: flow cytometry, Expi-CHO cells. As to the method:
as §2, with “SIRPαV1” for “SIRPαV2”, “(NP_542970.1)” for “(CAA71403.1)”, “56)” for “58)”

Assay [9] addresses T6, full-length human SIRPαV1 N→E on Expi-CHO cells (human, UniProt P78324 31-504).
T6 construct: the entry already carries the change (TKRN to TKRE)
The assay is described as follows: flow cytometry, Expi-CHO cells. As to the method:
as §2, with “SIRPαV1” for “SIRPαV2”, “(NP_542970.1)” for “(CAA71403.1)”, “56)” for “58)”

Assay [10] has as its target T5, full-length human SIRPαV1 (NP_542970.1) …. As to the kind of experiment: flow cytometry, CD14+ monocytes V1V1. As to the method: as §1
Assay [11] has the same target. The assay is described as follows: flow cytometry, competition with CD47 tetramer, monocytes V1V1. Here is the method:
Cells are washed, fixed, and analyzed by flow cytometry. Median fluorescent intensity of CD14+gated population is determined and used as a measure of CD47 binding.

Assay [12] addresses ED-tagged human SIRPα V2 receptor on Jurkat signaling reporter cells (human, UniProt P78324 31-504). As to the kind of experiment: cell-based or functional assay.
Assay [13] deals with T7, full-length human SIRPβL H→D on Expi-CHO cells (human, UniProt Q5TFQ8 30-398).
T7 construct: the entry already carries the change (PDHV to PDDV); also called βL WT H→D
As to the kind of experiment: flow cytometry, Expi-CHO cells. As to the method: Expi-CHO parental cells are transduced with lentiviruses containing either full-length wild-type human SIRPβL (Q5TFQ8) or full-length human SIRPβL with a single amino acid point mutation (Table 62) and sorted to achieve matching expression levels. These cells are blocked with donkey IgG and incubated on ice with increasing concentrations of antibodies for 60 minutes, washed and stained with AF647-conjugated donkey F(ab′)₂ anti-human IgG antibodies. Stained cells are washed, fixed, and analyzed by flow cytometry. Median fluorescent intensity is determined and used as a measure of antibody binding.
A single amino acid substitution (H→D) introduced within the loop region maintained, strengthened, or facilitated antibody binding to these cells (FIG. 34B, Table 63).

The target of assay [14] is T8, full-length human SIRPβ1 D→H on Expi-CHO cells (human, UniProt O00241 30-398).
T8 construct: the entry already carries the change (PDDV to PDHV)
As to the kind of experiment: flow cytometry, Expi-CHO cells expressing full-length human SIRPβ1 D→H. As to the method:
These cells are blocked with donkey IgG and incubated on ice with increasing concentrations of antibodies for 60 minutes, washed and stained with AF647-conjugated donkey F(ab′)₂ anti-human IgG antibodies. Stained cells are washed, fixed, and analyzed by flow cytometry. Median fluorescent intensity is determined and used as a measure of antibody binding.

B1: Antibody B (antibody, human IgG1, kappa, L234A L235A, V domains shown)
VH: QVQLVQSGAEVKKPGASVKVSCKASGYTFTGNYMHWVRQAPGQGLEWMGWINPNSGGTNYAQKFQGRVTMTRDTSISTAYMELSRLRSDDTAVYYCVSGSGWYENYYYYGMDVWGQGTTVTVSS
VL: DIQMTQSPSSVSASVGDRVTITCRASQGISSWLAWYQQKPGKAPKLLIYAESSLQSGVPSRFSGSGSGTDFTLTISSLQPEDFATYYCQQANSFPLTFGGGTKVEIKR
Take B1: the concentration giving a half-maximal response (EC50) in assay [1] came out at 21.8 nM; in [2] it was 22.3 nM; in [4] it was 3.6 nM; in assay [5], 4.1 nM; in assay [6], 3.7 nM; in assay [7], 3.7 nM. In addition, the figures for the EC50 in assay [8], in assay [9] and in assay [10] were 3.8 nM, 4.5 nM and 26.6 nM, respectively. In addition, the “Blockade of Cellular CD47-Mediated SIRPα Signaling; IC50” value in [3] came to 0.76 nM. Also, in [11], the IC50 stood at 2.55 nM.

B2: Antibody A (antibody, human IgG1, kappa, L234A L235A)
heavy: not shown
light: DIQMTQSPSSLSASVGDRVTITCRASQDINNYLAWFQQKPGKAPKSLIYTASSLHSGVPSKFSGSGSGTDFTLTISSLQPEDFATYYCQQYVSYPYTFGQGTKLEIKRTVAAPSVFIFPPSDEQLKSGTASVVCLLNNFYPREAKVQWKVDNALQSGNSQESVTEQDSKDSTYSLSSTLTLSKADYEKHKVYACEVTHQGLSSPVTKSFNRGEC
As for B2, the “Blockade of Cellular CD47-Mediated SIRPα Signaling; IC50” value in assay [12] and in assay [3] was 0.04 nM in each case. Besides, the midpoint of the response in assay [13], the EC50, lay at 0.5 nM. For the same molecule, the binding result in [14] was “no binding (tested: about 67 nM)”.

B3: Antibody A10 (antibody, human IgG1, kappa, L234A L235A)
heavy: not shown
light: DIQMTQSPSSLSASVGDRVTITCRASQDINNYLAWFQQKPGKAPKSLIYTASSLHSGVPSKFSGSGSGTDFTLTISSLQPEDFATYYCQQYVSYPYTFGQGTKLEIKRTVAAPSVFIFPPSDEQLKSGTASVVCLLNNFYPREAKVQWKVDNALQSGNSQESVTEQDSKDSTYSLSSTLTLSKADYEKHKVYACEVTHQGLSSPVTKSFNRGEC
In the case of B3, the “Blockade of Cellular CD47-Mediated SIRPα Signaling; IC50” value in [12] and in assay [3] was 0.04 nM in each case. In addition, in assay [13], the EC50 is 0.6 nM. Also, the binding result in assay [14] is on record as “no binding (tested: about 67 nM)”.

B4: Antibody C (antibody, human IgG1, kappa, L234A L235A, V domains shown)
VH: EVQLVESGGGLVQPGGSLRLSCAASGFTFSSYDMHWVRQATGKGLEWVSVIGIAGDTYYPGSVKGRFTISRENAKNSLYLQMNSLRVGDTAVYYCARGGSWDDAFDIWGQGTMVTVSS
VL: DIQMTQSPSSLSASIGDKVTITCRASQDINNYLAWFQQKPGKAPKSLIYTASSLQSGVPSKFSGSGSGTDFTLTISSLQPEDFATYYCQQYVSYPYTFGQGTKLEIKR
Take B4: the EC50 in [1] amounted to 0.3 nM; in assay [2], 0.3 nM; in [13], 0.3 nM; in assay [4], 0.2 nM; in assay [5] it was 0.2 nM; in [6], 0.2 nM. Further, the EC50 in assay [7] came to 0.2 nM; in [8] it was 0.3 nM; in assay [9] it was 0.3 nM; in assay [10], 0.6 nM. Besides, the “Blockade of Cellular CD47-Mediated SIRPα Signaling; IC50” value in assay [12] stood at 0.03 nM; in assay [3], 0.04 nM. In [14], the binding result is reported as “no binding (tested: about 67 nM)”. The half-maximal inhibitory concentration (IC50) in assay [11] worked out at 0.04 nM.

B5: Anti-SIRPα antibody KWAR23 (antibody, V domains shown)
VH: EVQLQQSGAELVKPGASVKLSCTASGFNIKDYYIHWVQQRTEQGLEWIGRIDPEDGETKYAPKFQDKATITADTSSNTAYLHLSSLTSEDTAVYYCARWGAYWGQGTLVTVSS
VL: QIVLTQSPAIMSASPGEKVTLTCSASSSVSSSYLYWYQQKPGSSPKLWIYSTSNLASGVPARFSGSGSGTSYSLTISSMEAEDAASYFCHQWSSYPRTFGAGTKLELK
As for B5, the EC50 worked out at 0.1 nM in assay [1]; 0.2 nM in [2]; 0.5 nM in [13]; 0.2 nM in assay [4]; 0.2 nM in [5]; 0.2 nM in assay [6]. In addition, the EC50 in [7] worked out at 0.2 nM; in assay [8], 0.3 nM; in [9], 0.5 nM; in assay [10] it was 0.2 nM. In addition, in assay [11], the IC50 was determined as 0.07 nM.

B6: Antibody E22 (antibody, human IgG1, kappa, L234A L235A, V domains shown)
VH: QVQLQESGPGLVKPSETLSLTCTVSGGSIRDYYWSWIRQPPGKGLEWIGFIYYNGRTFYQSSLKSRVTISLDTSKNQFSLKMTSVTAADTAVYYCARVRAYSGIGLDGTDVWGQGTTVTVSS
VL: DIVMTQSPLSLPVTPGEPASISCRSSQSLLYSTGYTYLDWYLQRPGQSPQLLIYGGSSRASGVPDRFSGSGSGTDFTLKISRVEAEDVGVFYCGQALQTPLTFGQGTKVEIKR
Regarding B6, the EC50 turned out to be 0.4 nM in [1]; 0.7 nM in assay [13]; 0.4 nM in assay [4]; 0.4 nM in [5]; 0.4 nM in [6]; 0.7 nM in [7]. Moreover, the EC50 worked out at 0.8 nM in assay [8], 0.9 nM in [9] and 0.8 nM in [10]. In assay [12], the “Blockade of Cellular CD47-Mediated SIRPα Signaling; IC50 (* Inhibition plateaus at <100%)” value turned out to be 0.07 nM. Besides, the “Blockade of Cellular CD47-Mediated SIRPα Signaling; IC50” value in assay [3] amounted to 0.07 nM. Besides, the binding result in [14] is recorded as “no binding (tested: about 67 nM)”. In addition, the IC50 in assay [11] stood at 0.25 nM.

Broadly, the EC50 is the concentration at which the effect is half-maximal. Higher therefore signals a less potent agent. For orientation: IC50 means the midpoint of a concentration-inhibition curve.
